Source: publication PMC8292422 (Nature Communications, 2021)
Where a chain is given by its changes, count along the chain named.

Experiments:
[1] = target: T1, AtRR1 (Agrobacterium fabrum, UniProt Q7CY46); experiment: chemical phosphorylation, Phos-tag gel; assay type: biochemical; conditions: 50 mM acetyl phosphate, 5 mM MgCl2, pH 7.8, 37 °C, 30 min
T1 construct: gene Atu1989; REC-domain-only response regulator, His6 tag, pET21b(+) with N-terminal T7 tag, E. coli BL21(DE3)
T1 sequence (Q7CY46 1-151): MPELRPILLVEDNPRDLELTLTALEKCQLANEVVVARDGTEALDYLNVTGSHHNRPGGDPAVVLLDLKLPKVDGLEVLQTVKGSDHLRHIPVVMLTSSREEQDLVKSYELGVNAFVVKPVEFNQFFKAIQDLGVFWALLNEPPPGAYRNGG

[2] = target: T2, DrBphP (Deinococcus radiodurans, UniProt Q9RZA4); experiment: Phos-tag gel, dephosphorylation of phospho-DrRR with and without ATP; assay type: biochemical; conditions: 1 mM ATP, phospho-DrRR as substrate, 5 mM MgCl2, pH 7.8, 25 °C, dark or red light
T2 construct: gene bphP; full length (755 residues), C-terminal His6 tag, pET21b(+), E. coli BL21(DE3), assembled with biliverdin
T2 sequence (Q9RZA4 1-755): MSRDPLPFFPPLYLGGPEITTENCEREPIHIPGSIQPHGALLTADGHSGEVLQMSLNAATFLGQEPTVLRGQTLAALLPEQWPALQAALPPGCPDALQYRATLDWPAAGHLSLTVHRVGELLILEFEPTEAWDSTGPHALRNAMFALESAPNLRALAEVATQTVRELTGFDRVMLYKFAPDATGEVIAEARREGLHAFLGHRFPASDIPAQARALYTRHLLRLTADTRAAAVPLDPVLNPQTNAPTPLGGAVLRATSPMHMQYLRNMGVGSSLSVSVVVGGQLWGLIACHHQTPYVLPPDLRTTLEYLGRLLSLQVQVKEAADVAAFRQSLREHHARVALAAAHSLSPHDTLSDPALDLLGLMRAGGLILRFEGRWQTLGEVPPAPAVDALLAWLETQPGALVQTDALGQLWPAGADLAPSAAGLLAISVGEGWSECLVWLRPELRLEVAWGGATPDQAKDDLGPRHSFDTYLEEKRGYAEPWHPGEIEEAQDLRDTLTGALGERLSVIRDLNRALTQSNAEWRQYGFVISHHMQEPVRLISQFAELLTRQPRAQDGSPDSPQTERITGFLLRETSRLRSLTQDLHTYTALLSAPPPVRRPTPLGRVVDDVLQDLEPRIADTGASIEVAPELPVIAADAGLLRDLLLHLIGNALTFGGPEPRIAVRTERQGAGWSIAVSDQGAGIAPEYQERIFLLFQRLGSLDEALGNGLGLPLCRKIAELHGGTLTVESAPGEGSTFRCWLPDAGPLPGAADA

[3] = target: T3, response regulator from Deinococcus radiodurans (DrRR) (Deinococcus radiodurans strain R1, UniProt Q9RZA5 1-149); experiment: ITC; dark (D), 30 mM Tris/HCl, pH 8.0
T3 chain: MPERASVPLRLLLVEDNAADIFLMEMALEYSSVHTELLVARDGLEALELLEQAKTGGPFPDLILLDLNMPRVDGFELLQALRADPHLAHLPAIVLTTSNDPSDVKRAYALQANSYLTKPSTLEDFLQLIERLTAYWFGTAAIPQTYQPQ

[4] = target: T3, response regulator from Deinococcus …; experiment: SPR; red light (R), kinetic
[5] = target: T3, response regulator from Deinococcus …; experiment: SPR; dark (D), kinetic
[6] = target: T3, response regulator from Deinococcus …; experiment: ITC; Ca2+ buffer
[7] = target: T3, response regulator from Deinococcus …; experiment: ITC; 1 mM AMP-PNP
[8] = target: T3, response regulator from Deinococcus …; experiment: SPR; red light (R), kinetic
[9] = target: T3, response regulator from Deinococcus …; experiment: SPR; dark (D), kinetic
[10] = target: T3, response regulator from Deinococcus …; experiment: ITC; Tris pH 8.0
[11] = target: the molecule itself; experiment: SEC; EGFP-labeled response regulator alone; Superdex-200 Increase 3.2/300; 25 mM Tris/HCl pH 7.8, 5 mM MgCl2, 4 mM 2-mercaptoethanol, 5% ethylene glycol; 24 µl at 5 mg/ml; plotted at 280 nm
[12] = target: DrBphP E536A variant (Deinococcus radiodurans strain R1, UniProt Q9RZA4 1-755, E536A, biliverdin chromophore (molar excess of biliverdin hydrochloride added to the lysate)); experiment: ITC
[13] = target: T4, DrBphP E536A variant (Deinococcus radiodurans strain R1, UniProt Q9RZA4 1-755, E536A, biliverdin chromophore (molar excess of biliverdin hydrochloride added to the lysate)); experiment: ITC; MicroCal PEAQ-ITC; BphP (30-50 µM) in the cell in the Pr state (785 nm), RR (750-800 µM) in the syringe; 25 °C, dark; Tris/HCl pH 7.8, 5 mM MgCl2, 4 mM 2-mercaptoethanol, 5% ethylene glycol; single-site fit; also run with AMP-PNP or Ca2+ added; conditions: both partners purified
T4 construct: source: E. coli BL21 (DE3), purified (NiNTA, SEC)
T4 sequence: T2 sequence (Q9RZA4 1-755) with E536A

[14] = target: T5, bacteriophytochrome from Deinococcus radiodurans (DrBphP), wild type (Deinococcus radiodurans strain R1, UniProt Q9RZA4 1-755, biliverdin chromophore (molar excess of biliverdin hydrochloride added to the lysate; thioether linkage to the conserved cysteine within the PAS domain)); experiment: as above; conditions: both partners purified
T5 construct: Pr (dark or far-red) and Pfr (red light) states are told apart by the assay; source: E. coli BL21 (DE3), purified (NiNTA, SEC)
T5 sequence: T2 sequence (Q9RZA4 1-755)

[15] = target: T5, bacteriophytochrome from Deinococcus …; experiment: SPR; Biacore X; response regulator coupled (EDC/NHS) on a carboxymethyldextran chip, phytochrome flowed; dark (Pr, far-red 785 nm pre-illumination); 20 mM HEPES, 300 mM NaCl, 5 mM MgCl2, 0.10% Tween20, pH 7.5; room temperature; steady-state (Req) fit, 1:1 model; conditions: both partners purified
[16] = target: T5, bacteriophytochrome from Deinococcus …; experiment: SPR; Biacore X; response regulator coupled (EDC/NHS) on a carboxymethyldextran chip, phytochrome flowed after red light (655 nm, Pfr); 20 mM HEPES, 300 mM NaCl, 5 mM MgCl2, 0.10% Tween20, pH 7.5; room temperature; steady-state fit; conditions: both partners purified
[17] = target: T5, bacteriophytochrome from Deinococcus …; experiment: SPR; same sensorgrams as the dark steady-state SPR; 1:1 Langmuir kinetic fit of ka/kd; DrBphP 8-67 µM; conditions: both partners purified

Molecule: CC(=O)OP(=O)(O)O [acetyl phosphate]
- chemical phosphorylation, Phos-tag gel [1]: whereas AtRR1 responded to the treatment weakly

Molecule: Nc1ncnc2c1ncn2[C@@H]1O[C@H](COP(=O)(O)OP(=O)(O)OP(=O)(O)O)[C@@H](O)[C@H]1O [ATP]
- Phos-tag gel, dephosphorylation of phospho-DrRR with and without ATP [2]: the phosphatase activity in DrBphP depended on ATP addition

B1: bacteriophytochrome from Deinococcus radiodurans (DrBphP), wild type (enzyme)
chain: T2 sequence (Q9RZA4 1-755)
modifications: biliverdin chromophore (molar excess of biliverdin hydrochloride added to the lysate; thioether linkage to the conserved cysteine within the PAS domain)
- Kd [3]: 35 µM
- koff [4]: 0.0065 s⁻¹
- koff [5]: 0.0046 s⁻¹
- Kd [6]: 2.8 µM
- Kd [7]: ~11 µM
- Kd [8]: 15.5 µM
- Kd [9]: 6.2 µM
- Kd [10]: 35 µM

B2: EGFP-labeled AtRR1 (natural protein)
chain: MPELRPILLVEDNPRDLELTLTALEKCQLANEVVVARDGTEALDYLNVTGSHHNRPGGDPAVVLLDLKLPKVDGLEVLQTVKGSDHLRHIPVVMLTSSREEQDLVKSYELGVNAFVVKPVEFNQFFKAIQDLGVFWALLNE
notes: also called EGFP-AtRR1; source: E. coli BL21 (DE3), purified (NiNTA, SEC)
- stoichiometry N [11]: 2

B3: response regulator from Deinococcus radiodurans (DrRR) (natural protein)
chain: T3 chain
notes: consists only of a receiver (REC) domain; Forms dimers in the crystal (four monomers, two dimers in the asymmetric unit); also called Q9RZA5_DEIRA; source: E. coli BL21 (DE3), purified (NiNTA, SEC)
- Kd [12]: 13 µM
- binding result [13]: binds
- Kd [14]: 8.1 µM
- Kd [15]: 43 ± 8 µM
- Kd [16]: 60 ± 7 µM
- Kd [17]: ~10 µM
